Measurements: patent publication US20250076311A1 (Chugai, published 2025)

T1: cynomolgus monkey FcγRIIIaS extracellular domain with C-terminal His-tag (cynomolgus monkey, UniProt Q8SPW2 21-206 at identity 1.00))
T1 construct: also called cyno FcγRIIIaS; FcgRIIIaS
T1 chain: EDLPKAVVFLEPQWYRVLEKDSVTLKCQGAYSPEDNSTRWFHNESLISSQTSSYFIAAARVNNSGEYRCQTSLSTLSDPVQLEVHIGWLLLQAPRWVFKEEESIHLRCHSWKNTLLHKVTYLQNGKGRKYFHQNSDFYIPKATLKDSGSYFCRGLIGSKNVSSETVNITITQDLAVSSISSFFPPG

T2: human FcγRIIaH extracellular domain, His-tagged (human, UniProt P12318 34-217)
T2 construct: also called human FcgRIIaH; FcγRIIa type H
T2 sequence: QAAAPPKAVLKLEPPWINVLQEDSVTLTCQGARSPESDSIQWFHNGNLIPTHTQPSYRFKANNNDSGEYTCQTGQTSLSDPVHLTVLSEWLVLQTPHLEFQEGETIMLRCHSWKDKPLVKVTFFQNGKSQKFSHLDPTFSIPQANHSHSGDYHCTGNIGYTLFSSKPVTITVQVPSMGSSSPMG

T3: human FcγRIIaR extracellular domain, His-tagged (human, UniProt P12318 34-217)
T3 construct: also called human FcgRIIaR; FcγRIIa type R
T3 chain: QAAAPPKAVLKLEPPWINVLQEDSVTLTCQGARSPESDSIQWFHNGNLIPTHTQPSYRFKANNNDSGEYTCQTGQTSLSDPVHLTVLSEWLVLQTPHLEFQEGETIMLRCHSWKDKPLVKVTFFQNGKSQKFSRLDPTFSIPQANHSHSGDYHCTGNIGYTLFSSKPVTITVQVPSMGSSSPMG

T4: human FcγRIIb extracellular domain, His-tagged (human, UniProt P31994 43-217)
T4 construct: also called human FcgRIIb
T4 sequence: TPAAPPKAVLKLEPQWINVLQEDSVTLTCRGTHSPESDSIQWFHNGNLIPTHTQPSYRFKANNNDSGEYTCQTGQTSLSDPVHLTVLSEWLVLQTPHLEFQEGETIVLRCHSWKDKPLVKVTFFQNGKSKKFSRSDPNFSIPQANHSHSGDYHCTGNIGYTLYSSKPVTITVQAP


Tests used:
[1] = biological target: T1, cynomolgus monkey FcγRIIIaS …; experiment: SPR; KD of SG1 / KD of variant
Method: The kinetic analysis of interactions between these antibodies and FcγR was carried out using BIACORE® T200 or BIACORE® 4000 (GE Healthcare). HBS-EP+ (GE Healthcare) was used as the running buffer, and the measurement temperature was set to 25° C. […] After the measurement, the antibody captured on the chip was washed off by allowing reaction with 10 mM glycine-HCl, pH1.5 and 25 mM NaOH so that the chip was regenerated and used repeatedly. The sensorgrams obtained as measurement results were analyzed by the 1:1 Langmuir binding model using the BIACORE® Evaluation Software to calculate the binding rate constant ka (L/mol/s) and dissociation rate constant kd (1/s), and the dissociation constant KD (mol/L) was calculated from these values. […] Regarding such interactions, KD values were calculated using the following 1:1 binding model described in BIACORE® T100 Software Handbook BR1006-48 Edition AE.

[2] = biological target: T2, human FcγRIIaH extracellular domain, …; experiment: SPR (Biacore), 25C, FcgR bound per antibody captured
[3] = biological target: T3, human FcγRIIaR extracellular domain, …; experiment: as above
[4] = biological target: T4, human FcγRIIb extracellular domain, …; experiment: as above
[5] = biological target: T5, human FcγRIIIaV extracellular domain, His-tagged (human, UniProt P08637 17-208); experiment: as above
T5 construct: also called human FcgRIIIaV
T5 sequence (P08637 17-208 F176V): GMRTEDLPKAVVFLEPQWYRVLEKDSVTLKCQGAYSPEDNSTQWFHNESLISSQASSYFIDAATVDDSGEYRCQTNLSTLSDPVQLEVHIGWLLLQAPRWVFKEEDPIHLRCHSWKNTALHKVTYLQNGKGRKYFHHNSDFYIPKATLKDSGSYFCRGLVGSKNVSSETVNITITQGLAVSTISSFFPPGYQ

KD fold (SG1 = 1) [1] [fold]	Binding to human FcgRs (parent B3 = 100) [2]	Binding to human FcgRs (parent B3 = 100) [3]	Binding to human FcgRs (parent B3 = 100) [4]	Binding to human FcgRs (parent B3 = 100) [5]	Binder
–	147	161	87	33	GpH7-B3 G236S / GpL16-k0 (antibody, human IgG1, kappa, also called B3 variant G236S) heavy: not shown light: DIVMTQSPLSLPVTPGEPASISCQASESLVHSNRNTYLHWYLQKPGQSPQLLIYKVSNRFSGVPDRFSGSGSGTDFTLKISRVEAEDVGVYYCSQNTHVPPTFGQGTKVEIERTVAAPSVFIFPPSDEQLKSGTASVVCLLNNFYPREAKVQWKVDNALQSGNSQESVTEQDSKDSTYSLSSTLTLSKADYEKHKVYACEVTHQGLSSPVTKSFNRGEC
–	–	55	110	85	GpH7-B3 P271D / GpL16-k0 (antibody, human IgG1, kappa, also called B3 variant P271D) heavy: not shown light: DIVMTQSPLSLPVTPGEPASISCQASESLVHSNRNTYLHWYLQKPGQSPQLLIYKVSNRFSGVPDRFSGSGSGTDFTLKISRVEAEDVGVYYCSQNTHVPPTFGQGTKVEIERTVAAPSVFIFPPSDEQLKSGTASVVCLLNNFYPREAKVQWKVDNALQSGNSQESVTEQDSKDSTYSLSSTLTLSKADYEKHKVYACEVTHQGLSSPVTKSFNRGEC
–	109	91	212	25	GpH7-B3 G236D / GpL16-k0 (antibody, human IgG1, kappa, also called B3 variant G236D) heavy: not shown light: DIVMTQSPLSLPVTPGEPASISCQASESLVHSNRNTYLHWYLQKPGQSPQLLIYKVSNRFSGVPDRFSGSGSGTDFTLKISRVEAEDVGVYYCSQNTHVPPTFGQGTKVEIERTVAAPSVFIFPPSDEQLKSGTASVVCLLNNFYPREAKVQWKVDNALQSGNSQESVTEQDSKDSTYSLSSTLTLSKADYEKHKVYACEVTHQGLSSPVTKSFNRGEC
–	142	131	117	33	GpH7-B3 G236E / GpL16-k0 (antibody, human IgG1, kappa, also called B3 variant G236E) heavy: not shown light: DIVMTQSPLSLPVTPGEPASISCQASESLVHSNRNTYLHWYLQKPGQSPQLLIYKVSNRFSGVPDRFSGSGSGTDFTLKISRVEAEDVGVYYCSQNTHVPPTFGQGTKVEIERTVAAPSVFIFPPSDEQLKSGTASVVCLLNNFYPREAKVQWKVDNALQSGNSQESVTEQDSKDSTYSLSSTLTLSKADYEKHKVYACEVTHQGLSSPVTKSFNRGEC

Second part, the binder before the results:

Binder	KD fold (SG1 = 1) [1] [fold]	Binding to human FcgRs (parent B3 = 100) [2]	Binding to human FcgRs (parent B3 = 100) [3]	Binding to human FcgRs (parent B3 = 100) [4]	Binding to human FcgRs (parent B3 = 100) [5]
M103205H795-MY293 (heavy chain) with M103202L889-SK1 (light chain) (antibody, human IgG1, kappa, name in EU numbering, Substitutions introduced into M103205H795-SG1; positions in EU numbering) heavy: QVTLKESGPVLVKPTETLTLTCTVSGIDLSHDDISWVRQAPGKGLEWVGIISYAGSTYYASWAKGRLTISKDTSKNQVVLTMTNMDPVDTATYYCARGVPAYSHGGDLWGQGTLVTVSSASTKGPSVFPLAPSSKSTSGGTAALGCLVKDYFPEPVTVSWNSGALTSGVHTFPAVLQSSGLYSLSSVVTVPSSSLGTQTYICNVNHKPSNTKVDKKVEPKSCDKTHTCPPCPAPELLGYPSVFLFPPKPKDTLMISRTPEVTCVVVDVSEEDPEVKFNWYVDGVEVHNAKTKPREELYNSTYRVVSVLTVLHQDWLNGKEYKCKVSNKALPKPIEKTISKAKGQPREPQVYTLPPSREEMTKNQVSLTCLVKGFYPSDIAVEWESNGQPENNYKTTPKVLDSDGSFFLYSKLTVDKSRWQQGNVFSCSVMHEALHNHYTQKSLSLSP light: DIVMTQSPATLSLSPGERATLSCTSSQSVYHANWLSWFQQKPGQPPKLLIYWASTLAYGVPSRFSGSGSGTDFTLTISSLQPEDAATYYCAGGYGGGRYAFGQGTKVEIKRTVAAPSVFIFPPSDEQLKSGTASVVCLLNNFYPREAKVQWKVDNALQSGNSQESVTEQDSKDSTYSLSSTLTLSKADYEKHKVYACEVTHQGLSSPVTKSFNRGEC	0.09	–	–	–	–
M103205H795-MY310 (heavy chain) with M103202L889-SK1 (light chain) (antibody, human IgG1, kappa, name in EU numbering, Substitutions introduced into M103205H795-SG1; positions in EU numbering) heavy: QVTLKESGPVLVKPTETLTLTCTVSGIDLSHDDISWVRQAPGKGLEWVGIISYAGSTYYASWAKGRLTISKDTSKNQVVLTMTNMDPVDTATYYCARGVPAYSHGGDLWGQGTLVTVSSASTKGPSVFPLAPSSKSTSGGTAALGCLVKDYFPEPVTVSWNSGALTSGVHTFPAVLQSSGLYSLSSVVTVPSSSLGTQTYICNVNHKPSNTKVDKKVEPKSCDKTHTCPPCPAPELLTGPSVFLFPPKPKDTLMISRTPEVTCVVVDVSEEDPEVKFNWYVDGVEVHNAKTKPREEQYNSTYRVVSVLTVLHQDWLNGKEYKCKVSNTALPKPIEKTISKAKGQPREPQVYTLPPSREEMTKNQVSLTCLVKGFYPSDIAVEWESNGQPENNYKTTPPVLDSDGSFFLYSKLTVDKSRWQQGNVFSCSVMHEALHNHYTQKSLSLSP light: DIVMTQSPATLSLSPGERATLSCTSSQSVYHANWLSWFQQKPGQPPKLLIYWASTLAYGVPSRFSGSGSGTDFTLTISSLQPEDAATYYCAGGYGGGRYAFGQGTKVEIKRTVAAPSVFIFPPSDEQLKSGTASVVCLLNNFYPREAKVQWKVDNALQSGNSQESVTEQDSKDSTYSLSSTLTLSKADYEKHKVYACEVTHQGLSSPVTKSFNRGEC	0.2	–	–	–	–
M103205H795-MY312 (heavy chain) with M103202L889-SK1 (light chain) (antibody, human IgG1, kappa, name in EU numbering, Substitutions introduced into M103205H795-SG1; positions in EU numbering) heavy: QVTLKESGPVLVKPTETLTLTCTVSGIDLSHDDISWVRQAPGKGLEWVGIISYAGSTYYASWAKGRLTISKDTSKNQVVLTMTNMDPVDTATYYCARGVPAYSHGGDLWGQGTLVTVSSASTKGPSVFPLAPSSKSTSGGTAALGCLVKDYFPEPVTVSWNSGALTSGVHTFPAVLQSSGLYSLSSVVTVPSSSLGTQTYICNVNHKPSNTKVDKKVEPKSCDKTHTCPPCPAPELLTGPSVFLFPPKPKDTLMISRTPEVTCVVVDVSEEDPEVKFNWYVDGVEVHNAKTKPREEQYNSTYRVVSVLTVLHQDWLNGKEYKCKVSNTALPKPIEKTISKAKGQPREPQVYTLPPSREEMTKNQVSLTCLVKGFYPSDIAVEWESNGQPENNYKTTPMVLDSDGSFFLYSKLTVDKSRWQQGNVFSCSVMHEALHNHYTQKSLSLSP light: DIVMTQSPATLSLSPGERATLSCTSSQSVYHANWLSWFQQKPGQPPKLLIYWASTLAYGVPSRFSGSGSGTDFTLTISSLQPEDAATYYCAGGYGGGRYAFGQGTKVEIKRTVAAPSVFIFPPSDEQLKSGTASVVCLLNNFYPREAKVQWKVDNALQSGNSQESVTEQDSKDSTYSLSSTLTLSKADYEKHKVYACEVTHQGLSSPVTKSFNRGEC	0.55	–	–	–	–
M103205H795-MY311 (heavy chain) with M103202L889-SK1 (light chain) (antibody, human IgG1, kappa, name in EU numbering, Substitutions introduced into M103205H795-SG1; positions in EU numbering) heavy: QVTLKESGPVLVKPTETLTLTCTVSGIDLSHDDISWVRQAPGKGLEWVGIISYAGSTYYASWAKGRLTISKDTSKNQVVLTMTNMDPVDTATYYCARGVPAYSHGGDLWGQGTLVTVSSASTKGPSVFPLAPSSKSTSGGTAALGCLVKDYFPEPVTVSWNSGALTSGVHTFPAVLQSSGLYSLSSVVTVPSSSLGTQTYICNVNHKPSNTKVDKKVEPKSCDKTHTCPPCPAPELLTGPSVFLFPPKPKDTLMISRTPEVTCVVVDVSEEDPEVKFNWYVDGVEVHNAKTKPREELYNSTYRVVSVLTVLHQDWLNGKEYKCKVSNKALPKPIEKTISKAKGQPREPQVYTLPPSREEMTKNQVSLTCLVKGFYPSDIAVEWESNGQPENNYKTTPPVLDSDGSFFLYSKLTVDKSRWQQGNVFSCSVMHEALHNHYTQKSLSLSP light: DIVMTQSPATLSLSPGERATLSCTSSQSVYHANWLSWFQQKPGQPPKLLIYWASTLAYGVPSRFSGSGSGTDFTLTISSLQPEDAATYYCAGGYGGGRYAFGQGTKVEIKRTVAAPSVFIFPPSDEQLKSGTASVVCLLNNFYPREAKVQWKVDNALQSGNSQESVTEQDSKDSTYSLSSTLTLSKADYEKHKVYACEVTHQGLSSPVTKSFNRGEC	0.15	–	–	–	–
GpH7-B3 G236A / GpL16-k0 (antibody, human IgG1, kappa, also called B3 variant G236A) heavy: not shown light: DIVMTQSPLSLPVTPGEPASISCQASESLVHSNRNTYLHWYLQKPGQSPQLLIYKVSNRFSGVPDRFSGSGSGTDFTLKISRVEAEDVGVYYCSQNTHVPPTFGQGTKVEIERTVAAPSVFIFPPSDEQLKSGTASVVCLLNNFYPREAKVQWKVDNALQSGNSQESVTEQDSKDSTYSLSSTLTLSKADYEKHKVYACEVTHQGLSSPVTKSFNRGEC	–	165	168	94	65
